In article PMC9270183 (The Journal of Experimental Medicine, 2022):

B1: V004 (antibody, V domains shown)
VH: QVQLQESGPGLVKPSQTLSLTCTVSGGSISSGSYYWSWIRQPAGKGLEWIGRIYTSGSTNYNPSLKSRVTISVDTSKNQFSLKLSSVTAADTAVYYCARDTTDDYYVIWGQGTLVTVSS
VL: DIQMTQSPSTLSASVGDRVTITCRASQSIRSWLAWYQQKPGKAPKLLIYDASSLESGVPSRFSGSGSGTEFTLTISSLQPDDFATYYCQQYNTHFRTFGQGTKVEIK
notes: IgG; donor BRA13; source: recombinant monoclonal IgG, produced and purified as previously described
B2: V037 (antibody, V domains shown)
VH: EVQLVESGGGLVQPGGSLRLSCAASEVIVSSNYMSWVRQAPGKGLEWVSVLYSGGSTFYADSVKGRFTISRDNSKNTLYLQMNSLRAEDTAVYYCARDLGPMGAFDIWGQGTMVTVSS
VL: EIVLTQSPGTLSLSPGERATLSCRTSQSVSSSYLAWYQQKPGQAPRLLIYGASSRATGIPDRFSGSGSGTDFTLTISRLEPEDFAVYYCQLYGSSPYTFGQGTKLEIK
notes: IgG; donor BRA15; source: recombinant monoclonal IgG, produced and purified as previously described
B3: V051 (antibody, V domains shown)
VH: QVQLVESGGGVVQPGRSLRLSCEASGFTFSTYAMHWVRQAPGKGLEWVAVISYDGNNKYYADSVKGRLTVSRDNSKNTLYLQMNSLRAEDTAEYYCARDDGGYCSSLSCPMDVWGQGTTVTVSS
VL: SYELTQPPSVSVAPGKTARITCGGNSIGSKSVHWYQQRPGQAPVLVIYYDSDRPSGIPERFSGSNSGNTATLTISRVEAGDEADYYCQVWDSTLVFGGGTKLTVL
notes: as for B2
B4: V045 (antibody, V domains shown)
VH: QVQLVQSGAEVKKPGASVKVSCKASTYTFTSYYIHWVRQAPGQGLEWMGIINPSGGSTSYAQNFQGRVTMTRDTSTSTVYMELSSLRSEDTAVYYCARGVLIPAAGGDFDYWGQGTLVTVSS
VL: QSALTQPRSVSGSPGQSVTISCTGTSSDVGGYKYVSWYQQHPGKAPKLMIYDVSKRPSGVPDRFSGSKSGNTASLTISGLQAEDEADYYCCSYAGSYSWVFGGGTKLTVL
notes: as for B2
B5: V042 (antibody, V domains shown)
VH: QLQLQESGPGLVKPSETLSLTCTVSGGSISSSTNYWGWIRQPPGKGLEWIGSIDYSGSTYYNPSLKSRVTMSVDTSKNQFSLKLSSVTATDTAMYYCARHVIDDSRGYYPAALDHWSQGTLVTVSS
VL: EIVLTQSPATLSLSPGERATLSCRASQSVNNYLAWYQQKPGQAPRLLIYDASNRATGVPARFSGSGSGTDFTLTISSLEPEDFAVYFCQQRSNWPPMYTFGQGTKLEIK
notes: as for B2
B6: V007 (antibody, V domains shown)
VH: QVQLVQSGAEVKKPGSSVKVSCKASGDTFSTYTISWVRQAPGQGLEWMGRIIPILGVGNYAQKFQGRVTITADKSTSTAYMELSSLRSEDTAVYYCAHTTPPGDAFDIWGQGTMVTVSS
VL: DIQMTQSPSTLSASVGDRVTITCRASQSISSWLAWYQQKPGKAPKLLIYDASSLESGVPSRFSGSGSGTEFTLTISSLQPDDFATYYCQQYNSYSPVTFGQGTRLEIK
notes: as for B1
B7: V050 (antibody, V domains shown)
VH: EVQLVESGGGLVKPGGSLRLSCAASGFSFSNAWMSWVRQAPGKGLEWVGRIKSKTDGGTTDYAAPVKGRFTISRDDSQNTLYLQMNSLKTEDTAVYYCITDRFRVHIRGYYGQGTLVTVSS
VL: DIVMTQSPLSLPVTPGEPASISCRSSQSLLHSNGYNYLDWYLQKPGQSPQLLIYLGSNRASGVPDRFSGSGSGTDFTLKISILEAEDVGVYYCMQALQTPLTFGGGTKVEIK
notes: as for B2
B8: V033 (antibody, V domains shown)
VH: QVQLVQSGAEVKKPGASVKVSCKASGYTFTSYGISWVRQAPGQGLEWMGWISAYNGNTNYAQKLQGRVTMTTDTSTSTAYMELRSLRSDDTAVYYCARGRFCSSTSCYRAAPNYYYYYMDVWGKGTTVTVSS
VL: NFMLTQPHSVSESPGKTVTISCTRSSGSIASNYVQWYQQRPGSAPTTVIYEDNQRPSGVPDRFSGSIDSSSNSASLTISGLKTEDEADYYCQSYDSSNPYWVFGGGTKLTVL
notes: IgG; donor BRA14; source: recombinant monoclonal IgG, produced and purified as previously described
B9: V039 (antibody, V domains shown)
VH: QVQLQESGPGLVKPSQTLSLTCTVSGGSISSGSYYWSWIRQPAGKGLEWIGRIYTSGSTNYNPSLKSRVTISVDTSKNQFSLKLSSVTAADTAVYYCARADYSDYDNYYFDYWGQGTLVTVSS
VL: NFMLTQPHSVSESPGKTVAISCTRSSGSIASNYVHWYQQRPGSSPTTVIYDDNQRPSGVPDRFSGSIDSSSNSASLTISGLKTEDEADYYCQSYDSSNHNWVFGGGTKLTVL
notes: as for B2
B10: V043 (antibody, V domains shown)
VH: QLQLQESGPGLVKPSETLSLTCTVSGGSISSNNYYWGWIRQPPGKGLECIGTIYYSGNTYYNPSLKSRVTISVDTSKNQFSLKLGSVTAADTAVYYCARQQWLRDAFHIWGQGTMVTVSS
VL: NFMLTQPHSVSESPGKTVTISCTGSSGSIASNYVQWYQQRPGSAPTIVIYEDNQRPSGVPDRFSGSIDSSSNSASLTISGLKTEDEADYYCQSYDSNIHVVFGGGTKLTVL
notes: as for B2
B11: V049 (antibody, V domains shown)
VH: QVQLVESGGGVVQPGRSLRLSCAASRFPFSNYGMHWVRQAPGKGLEWVAVISFDGNNKYYGDSVKGRLTISRDNSKNTLYLQVKSLRPEDTAVYYCAKDISTGLSLALFRSPDGEGMDVWGQGTTVTVSS
VL: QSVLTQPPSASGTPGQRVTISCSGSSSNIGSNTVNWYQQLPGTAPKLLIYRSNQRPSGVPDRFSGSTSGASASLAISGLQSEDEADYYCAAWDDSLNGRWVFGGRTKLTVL
notes: as for B2
B12: V044 (antibody, V domains shown)
VH: QVQLVQSGAEVKKPGASVKVSCKASGYTFTSYDINWVRQATGQGLEWMGWMNPNSGYAGYTQKFQGRITMTRNTSISTAYMELSSLRSEDTAVYFCARISSPTRLDPWGQGTLVTVSS
VL: NFMLTQPHSVSESPGKTVTISCSRSRGSIASSFVQWYQQRPGSSPTTVIYDDNQRPSGVPDRFSGSIDSSSNSASLTISGLKTEDEADYYCQSYDSISWVFGGGTKLTVL
notes: as for B2
B13: V038 (antibody, V domains shown)
VH: QVQLVQSGAEVKKPGASVKVSCKASGYTFTGYYVHWVRQAPGQGLEWMGWINPNSGGTNFAQRFQGRVTMTRDTSISTAYMELSRLRSDDTAVYYCARGITVYGVAPDAFDIWGQGTMVTVSS
VL: DIQMTQSPSSLSASVGDRVTITCQASQDISNYLNWYQQKPGKAPKVLIYDASNLEPGVPSRFSGSGSGTDFTFTISSLQPEDIATYYCQQYDNLITFGQGTRLEIK
notes: as for B2
B14: V048 (antibody, V domains shown)
VH: QVQLVQSGAEVKKPGASVKVSCKASGYTFTSYVISWVRQAPGQGLEWMGWISAYNGNTNYAQKLQGRVTMTTDTSTSTAYMELRSLRSDDTAVYYCARDVAGITMIVEEVIDAFDIWGQGTMVTVSS
VL: SYELTQPSSVSVSPGQTARITCSGDVLAKKYARWFQQKPGQAPVLVIYKDSERPSGIPERFSGSSSGTTVTLTISGAQVEDEADYYCFSAPDNNRVFGGGTKLTVL
notes: as for B2
B15: V032 (antibody, V domains shown)
VH: QVQLVESGGGVVQPGRSLRLSCAASGFTFSSYGMHWVRQAPGKGLEWVAVISYDGSNKYYADSVKGRFTISRDNSKNTLYLQMNSLRAEDTAVYYCAKVSGPYCSSTSCYTGYWDYWGQGTLVTVSS
VL: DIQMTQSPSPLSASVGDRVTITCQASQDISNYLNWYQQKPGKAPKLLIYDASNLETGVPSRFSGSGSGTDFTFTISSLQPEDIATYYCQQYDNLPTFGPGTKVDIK
notes: as for B8
B16: V055 (antibody, V domains shown)
VH: QVQLVQSGAEVKKPGSSVKVSCKASGGTFSSYIINWVRQAPGQGLEWMGRIIPILGIANYAQKFHGRVTITADESTSTAYMELSSLRSEDTAVYYCARGGPDPSDSNYAALLYYYYMDVWGKGTTVTVSS
VL: QSVLTQPPSVSAAPGQKVTISCSGSSSNIGSYYVSWYQKLPGTAPKLLIHENNKRPSGIPDRISGSKSGTSATLGITGLQTGDEADYYCGTWDSSLSDVVFGGGTKLTVL
notes: as for B2
B17: V054 (antibody, V domains shown)
VH: QVQLVESGGGVVQPGRSLRLSCAASGFPFSSFGMHWVRQAPGKGLEWVAVISSDGSNKYYADSVKGRFTISRDNSKNTLYLQMNSLRAEDTAVYYCAKEFTYVVVTALWGTENFDIWGQGTMVTVSS
VL: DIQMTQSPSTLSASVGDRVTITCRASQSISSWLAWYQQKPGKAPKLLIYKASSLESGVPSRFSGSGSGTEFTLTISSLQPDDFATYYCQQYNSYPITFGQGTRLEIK
notes: as for B2
B18: V046 (antibody, V domains shown)
VH: EVQLVESGGGLVQPGRSLRLSCAASGFTFEDYAMHWVRQAPGKGLEWVSGVSWNSGTIGYADSVKGRFIISRDNAKNSLYLQMNSLRAEDTALYYCANLGPTYYDFSRPTPMDVWGKGTTVTVSS
VL: QSALTQPASVSGSPGQSITISCTGTSSDVGGYNYVSWYQQHPGKAPKLIIYDVSNRPSGVSNRFSGSKSGNTASLTISGLQAEDEADYYCSSYTSSSTWVFGGGTKLTVL
notes: as for B2

Biological target: SARS-CoV-2 Wuhan-Hu-1 RBD (SARS-CoV-2 Wuhan-Hu-1, UniProt P0DTC2)
Test: BLI
Settings: both partners purified

Row | Binder | Kd [nM]
1 | B1 | 3.59
2 | B2 | 6.9
3 | B3 | 14.5
4 | B4 | 2.95
5 | B5 | 32.5
6 | B6 | 3.59
7 | B7 | 56.9
8 | B8 | 4.68
9 | B9 | 1.09
10 | B10 | 4.46
11 | B11 | 12.8
12 | B12 | 5.25
13 | B13 | 5.73
14 | B14 | 5.02
15 | B15 | 8.3
16 | B16 | 0.981
17 | B17 | 17.8
18 | B18 | 0.698
